How the values were obtained:
[1] = test system: S. fibuligera β-glucosidase Bgl1; conditions: Yan and Lin, 1997; cited from earlier work
A. niger β-glucosidase = conditions: Yan and Lin, 1997; cited from earlier work
[2] = β-Glucosidase activity, release of pNP from pNPGlc; assay type: biochemical; conditions: for Specific activity: pNPGlc
Protocol: β-Glucosidase activity was measured by quantifying the release of pNP (p-nitroplienol) from pNPGlc as described previously (Guo et al., 2011). One unit of pNPGlcase activity was defined as the amount of enzyme required to release 1 μmol pNP per min. Cellobiose phosphorylase activity was assayed by measuring the formation of Glc-1P from cellobiose as described previously (Reichenbecher et al., 1997). One unit of activity (U) was defined as the amount of enzyme required to release 1 μmol Glc-1P per min. All protein concentrations were measured using the Bradford method and bovine serum albumin as a standard (Bradford, 1976).

[3] = Subcellular fractionation and enzyme localization, activity assayed with pNPGlc; assay type: biochemical, Y. lipolytica
Protocol: Fractionation of yeast cells was carried out as described by Cummings and Fowler (1996), with slight modifications. Briefly, yeasts were cultivated until a cellular density of 6×10^7 cells/mL was reached. Then, to quantify total β-glucosidase activity, a 50 mL sample was taken and subjected to centrifugation at 8,000×g for 5 min at 4° C. thus isolating a cell pellet and supernatant. The cell pellet was disrupted in Tris-HCl buffer (50 mM, pH 7.4, 3 mM EDTA and 0.5 mM PMSF) using a MP FastPrep-24 Instrument (MP Biomedicals Inc.). β-Glucosidase activity in both the cell lysate and the supernatant was determined as described earlier in order to estimate total β-glucosidase activity. Using a second 50 mL yeast culture, a cell pellet containing approximately 2×10^8 cells/mL was obtained by centrifugation and then treated with zymolyase 100T at 10 mg/mL (Seikagaku corp roger) in 15 mL of sorbitol buffer (1 M sorbitol, 50 mM Tris-HCl, pH 7.4, 2 mM dithiothreitol, 10 mM MgCl2, 20 mM-sodium azide, 0.5 mM PMSF) at 30° C. with gentle shaking. Protoplast formation was monitored using a microscope until ≧99% of the cells was lysed when. SDS was added (1% SDS w/v). The solid protoplast fraction was then separated from the supernatant by centrifugation (1000 rpm for 5 min at 4° C.) and the latter was designated as the periplasmic fraction. The protoplasts were re-suspended in Tris-HCl buffer (50 mM Tris-HCl, pH 7.4) and disrupted by vortex in the presence of glass beads (0.4-0.45 mm). The homogenate was centrifuged (20,000×g for 2 h at 4° C.) and the supernatant and solid fractions were designated as the cytoplasmic and membrane fraction respectively. Prior to enzyme assays, the membrane fraction was suspended in citrate buffer.
Activity was assayed with pNPGlc.

[4] = Optimal temperature and pH for activity; assay type: biochemical; conditions: pNPGlc
Protocol: (§1) Optimal temperatures and pH for the activity of Bgl1-His6 and Bgl2 were determined using pNPGlc as the substrate. Assays were either performed at pH 5.0 and various temperatures (30-70° C.), or at 30° C. in variable pH conditions (2.0 to 8.0) using either 50 mM glycine-HCl (pH 2.0), 50 mM citrate/acetate (pH 3.0-7.2), or potassium phosphate (pH 7.0-8.2) buffer. When the temperature was varied, the pH of the citrate buffer was adjusted accordingly. Stability of Bgl1-His6 and Bgl2 depending on pH and temperature was analysed as follows: enzymes were incubated at 30° C. for up to 2 h at various pH values (2.0 to 8.0), or at various temperatures (30-70° C.) for up to 2 h in 50 mM citrate buffer, pH 5.0. Residual glucosidase activity was then assayed at 30° C. in 50 mM citrate buffer, pH 5.0.

[5] = Stability depending on pH and temperature (residual glucosidase activity); assay type: physicochemical
Protocol: as §1

[6] = Specific activity on cellobiose; assay type: biochemical
Source text: (§2) When using aryl-substrates, the standard assay method was employed, simply replacing pNPGlc by another substrate as appropriate. For oligosaccharides, the release of glucose was quantified using an enzyme kit (D-Fructose/D-Glucose Assay Kit, liquid stable, Megazyme).

[7] = Substrate specificity, aryl-glycoside; assay type: biochemical
Source text: as §2

[8] = Michaelis-Menten kinetics (glucose release); assay type: biochemical; conditions: cellobiose
Source text: as §2

OC[C@H]1O[C@@H](O[C@H]2[C@H](O)[C@@H](O)C(O)O[C@@H]2CO)[C@H](O)[C@@H](O)[C@@H]1O (stereo partly drawn) [Cellobiose]
Km [1]: 2800 µM | Km (A. niger β-glucosidase): 2700 µM

B1: Bgl2: β-glucosidase of Y. lipolytica encoded by BGL2 (YALI0B14289g), SEQ ID NO: 6, secreted to the culture medium (protein, listed as Yarrowia lipolytica)
chain: MLAFVLLLTMLLAAALADPFSDKDAYKHSPPYYPAPEIGRVPTDLRWRAALKVAQGMVANMTLLEKVNITTGTGWEMGPCVGNTGTVERLGIKSLCLQDGPLGIRFADLITTFPAGITIASTFSRQLVRERGAAMGRENRRKGVDITLSPVVGPLGRHANGGRIWEGFSADPYLAGKLAAEAVTGIQGQNVMAVVKHMVGNEQEHFRQLGEWQGFGFKDLKQPLSSNIDDRTLNEAYLWPFADAVRANVGSVMCSYQQINGSQGCQNAHILNGKLKEEMGFQGFVMSDWLAQRSGVASVLAGLDMSMPGDGLVWADGVPLMGYELTRSVLNGTIDESRVDDMVTRILTPILYLSITPTDPNFSSWTNDTTSYKYYGAKAGGNVTVNRHIDVRDQYTTKAALDGANAALVLLKNEKKTLPLNPTNIGNLNIFGIGSKTGPLGAVCGENMQCSDGALIEGWGSGSVYPTDYQSPYDAIKERASKDNITIGGTTQSWGNLSNVEILSAAADASVVFVLSDSGESTGIVDGNIGDRNNLTLWHNGDEVVKAVASKNPNTIVVVTTVGPVNLEKWIDNPNVTAVLLTGPAGDFGGRAAASILFGDIAPSGKLPFTIAKNDTDYIPLTTKIPEDGLPQDYFTEGTLLDYKRFDENQVTPRFEFGYGLSYSNITVENLEARYAFPSIPEFLPTPFAPSNPNKPKNAFTPHANESVFPSDIDPLNKYVYPYLNDTSEIFSNETHYPYPEGYSSEQSNSTNINGGAVGGNPALWLSAVYIVHSVSNYGPYDTGVVTQMYIAFPQDNDDLKTAPRQLRGFERSELKVGERQGILYDVQWRDLAVWDVKLQSWRVQRGEYKVYVGHSSRDFVLTTSFTLK
decrease in specific activity after deglycosylation ([2]; endoglycosidase H treatment, pNPG): 60% | Specific activity ([2]; purification step: Culture filtrate): 0.23 U/mg | Specific activity ([2]; purification step: Gel filtration): 25.8 U/mg | Specific activity ([2]; purification step: Ion exchange): 2.0 U/mg | Specific activity ([2]; purification step: Ultra filtration): 0.26 U/mg | activity on pNPGlc of purified enzyme ([2]; preliminary characterization, pNPGlc as substrate): 25.8 U/mg | Relative enzyme activity, Cytoplasm ([3]; fraction: Cytoplasm): 4.8 ± 0.8% | Relative enzyme activity, Growth medium ([3]; fraction: Growth medium): 79.6 ± 1.2% | Relative enzyme activity, Membrane ([3]; fraction: Membrane): 3.7 ± 0.3% | Relative enzyme activity, Periplasm ([3]; fraction: Periplasm): 25.8 ± 1.0% | Relative enzyme activity, Total ([3]; fraction: Total): 100% | pH of highest activity ([4]; 30° C.): 4.0 | temperature of highest activity ([4]; pH 5.0): 50 °C | enzyme activity remained ([5]; 30° C. and 40° C. at pH 5): 100% | pH range in which enzyme is stable ([5]; 30° C., up to 2 h): 3.5-7.0 | enzyme activity remained ([5]; pH 4.0, 5.0 and 6.0 at 30° C.): 100% | temperature below which enzyme is stable ([5]; pH 5.0, up to 2 h): below 50 °C | specific activity on cellobiose [6]: 25 units/mg protein | activity on pNP-α-D-glucopyranoside [7]: Neither enzyme displayed activity | activity on pNP-β-D-galactopyranoside [7]: Neither enzyme displayed activity | activity on pNP-β-D-cellobioside relative to pNPGlc ([7]; activity on pNPGlc as benchmark): 27% | KM fold lower than those of β-glucosidases from S. fibuligera and A. niger [8]: ~4 fold
